Results on one protein are retold here after PMC10784544, “Ferric reduction by a CYBDOM protein counteracts increased iron availability in root meristems induced by phosphorus deficiency” (Nature Communications, 2024).

Substrate in this data set: O=C1O[C@H]([C@@H](O)CO)C(O)=C1O
Kind of data set: two-electrode voltage clamp in Xenopus oocytes, trans-plasma membrane current. In kind it is cell-based, Arabidopsis thaliana. As to conditions: cytosolic electron donor, raised by injection; ferricyanide as extracellular electron acceptor.

B1: HYP1 (… TO LOW P1) (Arabidopsis thaliana) (protein)
chain: QSLCNTHRFTNNLAFADCSDLSALGSFLHWTYNEQNGTVSIAYRHPGTSASSWVAWGLNPSSTQMVGTQALVAFTNTTTNQFQAYTSSVSSYGTRLERSSLSFGVSGLSATLVSGEVTIFATLELSPNLITANQLWQVGPVVNGVPASHQTSGDNMRSSGRIDFRTGQASAGGGGSGDRLRKRNTHGVLNAVSWGVLMPMGAMMARYMKVFADPTWFYLHIAFQVSGYVIGVAGWATGIKLGNDSPGTSYSTHRNLGIALFTFATLQVFALLVRPKPDHKYRTYWNVYHHTVGYTTIILSIVNIFKGFDILDPEDKWRWAYIGILIFLGACVLILEPLTWFIVLRRKSRGGNTVAAPTSSKYSNGVNGTTTTGPHHQDA
notes: cDNA in pGEMHE, cRNA-injected Xenopus laevis oocytes
B1: the Km turned out to be 4 mM.
